From patent US20140163217A1, “PROCESS FOR THE ESTERIFICATION OF HYALURONIC ACID WITH HYDROPHOBIC ORGANIC COMPOUNDS” (UNIVERSITE DE GENEVE, priority 2010, published 2014)

Legend:
Format in all cases: physicochemical
[1] = Solubility of the product in water; conditions: product of small scale reaction (0.5 g), 2% diacerhein functionalization
Method: 0.044 g Diacerhein were suspended into 20 mL dry THF, followed by addition of 0.022 g CDI dissolved in 2 mL THF. The reaction mixture was stirred for 1 hour at room temperature until a clear solution was obtained. 0.5 g cryo-micronized HA powder were added and the suspension stirred at 70° C. for 24 hours. The reaction mixture was then filtered through a G4-fritte and washed with 150 mL dry THF. The non-soluble remaining HA product was slightly yellowish. By redissolving the product in water small amounts of remaining dispersed diacerhein could be removed by centrifugation to yield a visually clear and transparent aqueous solution.
The obtained product was analyzed by H^1-NMR-, HPLC-, UV- and LC-MS/MS-analyses, and the following results were obtained. The reaction resulted a 100% yield of HA-polymer, close to its original molecular weight with a 2% diacerhein-fimctionalization. No significant degradation of HA in the final product could be observed. […] For further qualitative characterization the HA-diacerhein product was enzymatically hydrolysed, which lead to HA-fragments (oligomers) with and without diacerhein, which could be analysed by HPLC analysis. Furthermore HA-fragments with and without diacerhein attached were identified by LC-MS/MS.

[2] = pH determination of the 1% solution; conditions: 1% (weight/weight) solution in MilliQ water; Metrohm 691 pH-Meter, Biotrode glass electrode
Method: pH of the above described 1% solution was determined to be 5.5 (Metrohm 691 ph-Meter operated with a Biotrode glass electrode; according to specifications received for the initial hyaluronic acid provided by TRB, pH of a 0.5% solution should be between 5.0 and 8.5).

[3] = Solution appearance of a 1% (weight/weight) solution in MilliQ water; conditions: approx. 10 mg freeze-dried compound in 1 ml MilliQ water, after storage or centrifugation at 14'000 rpm for 10 min
Method: A 1% (weight/weight) solution was obtained by dissolving approximately 10 mg of freeze-dried compound into 1 ml of pure MilliQ water.

Substance | solubility in water [1] | pH of 1% solution [2] | solution appearance / precipitation [3]
HA-Diacerhein [Example 1] | soluble in water |  | 
HA-Diacerhein [Example 2] |  | 5.5 | no precipitation occurred
